B1: shFas(nd29)-hinge (receptor)
chain: TQNLEGLHHDGQFCHKPCPPGERKARDCTVNGDEPDCVPCQEGKEYTDKAHFSSKCRRCRLCDEGHGLEVEINCTRTQNTKCRCKPNFFCNSTVCEHCDPCTKCEHGIIKECTLTSNTKCKEEGSRSNEPKSCDKTHTCPPCP
B2: shFas(nd29)-hinge, higher molecular weight gel filtration fraction (fractions 1 and 2, seemed to correspond to a dimer) (receptor)
chain: B1 chain

Key:
[1] = target: mouse Fas ligand (mouse) (UniProt P41047); assay: cell-based or functional assay
[2] = target: human Fas ligand (human) (UniProt P48023); assay: cell-based or functional assay
Sequence of UniProt P48023 (P48023 whole entry): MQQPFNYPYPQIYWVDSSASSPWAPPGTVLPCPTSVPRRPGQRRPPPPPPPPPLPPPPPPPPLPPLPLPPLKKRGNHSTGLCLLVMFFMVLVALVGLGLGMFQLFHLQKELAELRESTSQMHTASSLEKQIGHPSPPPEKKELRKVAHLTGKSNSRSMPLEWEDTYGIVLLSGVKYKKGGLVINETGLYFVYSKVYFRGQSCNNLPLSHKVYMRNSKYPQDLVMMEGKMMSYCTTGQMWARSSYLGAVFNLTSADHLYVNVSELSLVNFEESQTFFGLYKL

Sequence of UniProt P41047 (P41047 whole entry): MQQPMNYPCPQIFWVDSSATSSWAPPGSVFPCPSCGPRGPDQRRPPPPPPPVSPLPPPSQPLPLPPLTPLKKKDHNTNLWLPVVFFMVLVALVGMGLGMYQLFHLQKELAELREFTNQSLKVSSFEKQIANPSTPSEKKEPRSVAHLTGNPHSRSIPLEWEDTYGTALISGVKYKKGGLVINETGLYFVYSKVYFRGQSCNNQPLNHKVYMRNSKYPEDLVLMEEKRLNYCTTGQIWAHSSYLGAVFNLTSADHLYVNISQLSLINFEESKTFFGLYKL

Row | Binder | specific cytotoxicity inhibition activity (51Cr release; FLm14 effector cells, W4 target cells; FIG. 12) (times higher than hFas-Fc) [1] | specific cytotoxicity inhibition activity (51Cr release; 1A12 effector cells, WC8 target cells; FIG. 11) (times higher than hFas-Fc) [2] | cytotoxicity inhibition activity by the assay described in Inventive Example 8 ([2]; scale: times stronger than the lower molecular weight fraction)
1 | B1 | 3 to 10 | 3 to 10 | 
2 | B2 |  |  | > 50

Reference: US20020044944A1
